The target of experiment [1] is T1, mouse PD-1/His (Sino Biological Inc.) (mouse, UniProt Q02242 25-167).
T1 construct: Bought protein; not shown: His tag
T1 sequence (looked up): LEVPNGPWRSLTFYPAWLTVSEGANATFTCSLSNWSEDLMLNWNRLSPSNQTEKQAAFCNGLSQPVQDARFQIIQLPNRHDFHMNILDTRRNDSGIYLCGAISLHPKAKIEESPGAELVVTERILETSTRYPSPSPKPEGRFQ
The experiment in a line: indirect ELISA, mouse PD-1/His coated at 0.1 µg/mL, HRP goat anti-mouse IgG. The protocol: (§1) Human PD-1/His, human ICOS/Fc, human CTLA4/His, human CD28/Fc, cynomolgus monkey PD-1/Fc, and mouse PD-1/His (all from Sino Biological Inc., Beijing, China) were diluted with PBS buffer to 0.1 μg/mL, and added to the 96-well plate at a volume of 100 μL/well and placed at 16° C. for 16 to 20 h. The PBS buffer was aspirated from the 96-well plate, and the plate was washed once with PBST (PBS containing 0.05% Tween 20, pH 7.4). 200 μL of PBST/1% no-fat milk was added to each well and incubated at room temperature for 1 h for blocking. The blocking solution was removed and the plate was washed 3 times with PBST. 100 μL of the anti-PD-1 antibody to be tested was added to each well, and incubated at room temperature for 1.5 h. The reaction solution was removed and the plate was washed 3 times with PBST. 50 μL of the HRP-labeled goat anti-mouse IgG secondary antibody (The Jackson Laboratory) diluted (dilution ratio 1:4000) was added to each well. Incubated at room temperature for 1 h. The plate was washed 3 times with PBST. 100 μL of the TMB was added to each well and incubated at room temperature for 5-10 min 50 μL of 0.2 M sulfuric acid was added to each well to terminate the reaction. Absorbance values were read at dual wavelengths of 450/620 nm in a microplate reader.
In general terms: ELISA stands for enzyme-linked immunosorbent assay.

The target of experiment [2] is T2, cynomolgus monkey PD-1/Fc (Sino Biological Inc.) (cynomolgus monkey, UniProt B0LAJ3 25-170).
T2 construct: Bought protein
T2 sequence (B0LAJ3 entry or part of it limits assumed): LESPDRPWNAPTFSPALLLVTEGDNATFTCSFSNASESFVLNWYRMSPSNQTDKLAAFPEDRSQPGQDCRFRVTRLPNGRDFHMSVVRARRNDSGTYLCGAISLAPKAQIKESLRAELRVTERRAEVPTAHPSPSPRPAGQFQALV
The experiment in a line: indirect ELISA, cynomolgus monkey PD-1/Fc coated at 0.1 µg/mL, HRP goat anti-mouse IgG. The protocol: as §1

Experiment [3] deals with T3, human ICOS/Fc (Sino Biological Inc.) (human, UniProt Q9Y6W8 21-141, limits assumed).
T3 construct: Bought protein; not shown: Fc
T3 sequence (looked up): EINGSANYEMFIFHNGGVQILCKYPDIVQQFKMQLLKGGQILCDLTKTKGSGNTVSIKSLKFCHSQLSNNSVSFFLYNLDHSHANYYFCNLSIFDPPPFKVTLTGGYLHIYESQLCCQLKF
The experiment in a line: indirect ELISA, human ICOS/Fc coated at 0.1 µg/mL, HRP goat anti-mouse IgG. The protocol: as §1

Experiment [4] concerns the target T4, human CTLA4/His (Sino Biological Inc.) (human, UniProt P16410 36-162, limits assumed).
T4 construct: Bought protein; not shown: His tag
The experiment in a line: indirect ELISA, human CTLA4/His coated at 0.1 µg/mL, HRP goat anti-mouse IgG. The protocol:
as §1

Experiment [5] deals with T5, human PD-1/His (Sino Biological Inc.) (human, UniProt Q15116 25-170).
T5 construct: extracellular domain; Bought protein; also called extracellular domain fragment of PD-1 protein containing His tag; not shown: His tag
T5 sequence (Q15116 25-170): as the sequence (B0LAJ3 entry or part of it limits assumed) above, with E2D, A10P, L19V, A35T, R75Q, A144T counted along it
The experiment can be described thus: affinity and kinetic constants; method not restated, taken as BLI of Example 3.4.

Experiment [6] has as its target T6, Human PD-1 (Sino Biological Inc., Beijing, China) (human, UniProt Q15116 25-167).
T6 construct: also called hPD-1
The experiment in a line: indirect ELISA, human PD-1 coated at 0.1 µg/mL, HRP goat anti-human IgG. An excerpt: (§2) The HRP-labeled goat anti-human IgG antibody (The Jackson Laboratory) was used as the secondary antibody, and the detailed assay procedure was as described in Example 2.

The target in experiment [7] is T6, Human PD-1 (Sino Biological Inc., …). The experiment in a line: competitive ELISA, human PD-1 coated at 0.1 µg/mL, competitor Keytruda-HRP. The protocol:
(§3) Human PD-1 (Sino Biological Inc., Beijing, China) was diluted to 0.1 μg/mL with PBS buffer and added to the 96-well plate at a volume of 100 μL/well and allowed to stand overnight at room temperature. The coating solution was removed, 200 μL of PBST/1% no-fat milk was added to each well and incubated at room temperature for 1 h for blocking. The blocking solution was removed and the plate was washed 3 times with PBST.

Experiment [8] has the same target. The experiment in a line: competitive ELISA, human PD-1 coated at 0.1 µg/mL, competitor Opdivo-HRP. The protocol:
as §3

Experiment [9] has as its target T7, mouse PD-1 (Sino Biological Inc., Beijing, China) (mouse, UniProt Q02242 25-167, limits assumed).
T7 sequence (looked up): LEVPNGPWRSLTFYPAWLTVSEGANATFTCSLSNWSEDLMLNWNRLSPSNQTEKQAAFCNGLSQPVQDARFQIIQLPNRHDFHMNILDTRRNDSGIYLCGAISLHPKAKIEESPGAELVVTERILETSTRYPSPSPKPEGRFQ
The experiment in a line: indirect ELISA, mouse PD-1 coated, HRP goat anti-human IgG.
Excerpt: as §2

In experiment [10] the target is T8, PD-1 overexpressed on the surface of CHO cells (Homo sapiens (Human), UniProt Q15116 25-288).
T8 construct: also called PD-1-overexpressing CHO cells
T8 sequence (Q15116 25-288 limits assumed): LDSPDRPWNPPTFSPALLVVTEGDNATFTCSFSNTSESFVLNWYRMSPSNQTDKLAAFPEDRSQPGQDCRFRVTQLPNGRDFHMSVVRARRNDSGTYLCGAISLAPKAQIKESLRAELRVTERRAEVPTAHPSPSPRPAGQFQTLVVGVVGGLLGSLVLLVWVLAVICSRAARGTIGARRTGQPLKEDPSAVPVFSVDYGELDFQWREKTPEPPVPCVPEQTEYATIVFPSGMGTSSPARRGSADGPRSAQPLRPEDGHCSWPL
The experiment in a line: flow cytometry on PD-1-overexpressing CHO cells, FITC goat anti-human IgG. The text has this:
FACS (fluorescence activated cell sorting) is a test used for detection of the binding between proteins and cells. The test was used to detect the binding activity of the humanized anti-PD-1 antibodies of the present invention to native PD-1 expressed on the cell surface. The cells used in the test were PD-1-overexpressing CHO cells.
For orientation: In flow cytometry, cells or beads pass a laser one at a time.

The target of experiment [11] is T9, PD-1 expressed on the surface of activated human T cells (human, UniProt Q15116 25-288).
T9 construct: whole, on cells
T9 sequence (Q15116 25-288): as the sequence (Q15116 25-288 limits assumed) above
The experiment can be described thus: flow cytometry on activated human T cells, FITC goat anti-human IgG. How it is done:
Fresh mononuclear cells were obtained from human peripheral blood by density gradient centrifugation (Lymphoprep™, human lymphocyte separation solution, […]), and high purity T lymphocytes were obtained using T cell isolation reagents ([…]). The T lymphocytes were stimulated with 5 μg/mL of the anti-CD3 antibody for 48 h, and cultured for 7 days after addition of 250 IU/mL of human IL-2. A large number of activated T lymphocytes were then obtained. […] The FITC signals were detected by flow cytometry.

Experiment [12] concerns the target T5, human PD-1/His (Sino Biological Inc.). The experiment can be described thus: competitive ELISA: PD-1/His coated at 2 µg/mL, blocks biotin-labeled PD-L1/Fc. How it is done:
The extracellular domain fragment of PD-1 protein containing His tag was coated onto the 96-well ELISA plate.
PD-1/His was diluted to 2 μg/mL with PBS buffer, pH 7.2, and added to the 96 well ELISA plate at 100 μL per well and incubated with shaking at room temperature for 1 h. The PBS buffer was aspirated from the 96-well ELISA plate. 200 μL of PBST(PBS containing 0.05% Tween 20, pH 7.4)/1% no-fat milk was added to each well and incubated at room temperature for 1 h for blocking. The plate was washed 3 times with PBST. 50 μL of the anti-PD-1 antibody to be tested was added to each well, which was diluted with the blocking solution to an appropriate concentration. […] Incubating at room temperature for 1 h. The plate was washed 3 times with PBST. 100 μL of SA-Avidin-HRP (HRP-labeled streptavidin) diluted at 1:250 ratio with the blocking solution was added to each well, and incubated at room temperature for 1 h. Washing the plate 3 times with PBST. 100 μL of the TMB substrate solution was added to each well and incubated at room temperature for 5-10 min. Adding 50 μL of 0.2 M sulfuric acid to each well to terminate the reaction. The absorbance values were read at 450 nm in a microplate reader.

T6 sequence (Q15116 25-167 limits assumed): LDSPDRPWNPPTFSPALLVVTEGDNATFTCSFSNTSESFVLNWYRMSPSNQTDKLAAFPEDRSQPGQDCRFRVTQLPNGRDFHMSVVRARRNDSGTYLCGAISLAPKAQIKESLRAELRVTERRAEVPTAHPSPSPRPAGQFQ
T4 sequence (P16410 36-162 limits assumed): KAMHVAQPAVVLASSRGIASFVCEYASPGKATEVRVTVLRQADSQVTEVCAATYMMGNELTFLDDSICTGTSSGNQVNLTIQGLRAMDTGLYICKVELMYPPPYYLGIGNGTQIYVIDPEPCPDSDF

B1: murine monoclonal antibody AB12N1 (antibody, mouse IgG1, V domains shown)
VH: QVQLVESGGGVVQPGRSLRLDCKASGITFSNSGMHWVRQAPGKGLEWVAVIWYDGSKRYYADSVKGRFTISRDNSKNTLFLQMNSLRAEDTAVYYCATNDDYWGQGTLVTV
VL: EIVLTQSPATLSLSPGERATLSCRASQSVSSYLAWYQQKPGQAPRLLIYDASNRATGIPARFSGSGSGTDFTLTISSLEPEDFAVYYCQQSSNWPRTFGQGTKVEIK
notes: subclass identified as mouse IgG1 (Kappa), purified from hybridoma supernatant; also called antibody of hybridoma clone #22
As to B1, the binding result in experiment [1], in experiment [2], in experiment [3] and in experiment [4] was “no binding (tested: 10 µg/mL)” each time.

B2: humanized antibody AB12N3 (antibody, V domains shown)
VH: QVQLVESGGGVVQPGRSLRLSCAASGITFSNSGMHWVRQAPGKGLEWVAVWYDGSKRYYADSVKGRFTISRDNSKNTLYLQMNSLRAEDTAVYYCATNDDYWGQGTLVTV
VL: EIVLTQSPATLSLSPGERATLSCRASQSVSSYLAWYQQKPGQAPRLLIYDASNRATGIPARFSGSGSGTDFTLTISSLEPEDFAVYYCQQSSNWPRTFGQGTKVEIK
Broadly, the Kd is a measure of binding affinity in units of concentration. As a reminder, the koff is a measure of how fast the partners let go of each other. One may read the kon as the second-order rate constant of association. In [5], B2 returned a Kd of 365 pM, a koff of 2.28e-05 s⁻¹ and a kon of 62400 M⁻¹ s⁻¹.

B3: humanized antibody AB12N5 (antibody, V domains shown)
VH: QVQLVESGGGVVQPGRSLRLSCAASGITFSNSGMHWVRQAPGKGLEWVAVWYDGSKRYYADSVKGRFTISRDNSKNTLFLQMNSLRAEDTAVYYCATNDDYWGQGTLVTV
VL: EIVLTQSPATLSLSPGERATLSCRASQSVSSYLAWYQQKPGQAPRLLIYDASNRATGIPARFSGSGSGTDFTLTISSLEPEDFAVYYCQQSSNWPRTFGQGTKVEIK
As for B3, in experiment [5], binding was characterised by a dissociation constant (Kd) of 414 pM, the koff came out at 2.56e-05 s⁻¹ and the kon was 61900 M⁻¹ s⁻¹.

B4: humanized antibody AB12N4 (antibody, V domains shown)
VH: QVQLVESGGGVVQPGRSLRLSCAASGITFSNSGMHWVRQAPGKGLEWVAVIWYDGSKRYYADSVKGRFTISRDNSKNTLYLQMNSLRAEDTAVYYCATNDDYWGQGTLVTV
VL: EIVLTQSPATLSLSPGERATLSCRASQSVSSYLAWYQQKPGQAPRLLIYDASNRATGIPARFSGSGSGTDFTLTISSLEPEDFAVYYCQQSSNWPRTFGQGTKVEIK
As to B4, in experiment [5], binding was characterised by a dissociation constant (Kd) of 378 pM, the koff was 2.41e-05 s⁻¹ and the kon was 63700 M⁻¹ s⁻¹.

B5: mouse-human chimeric antibody AB12M2 (antibody, V domains shown)
VH: EVKLVESGGGLVKPGGSLKLSCAASGFTFSSYGMSWVRQTPEKRLEWVATISGGGRDTYYPDSVKGRFTISRDNAKNNLYLQMSSLRSEDTALYYCARQKDTSWFVHWGQGTLVTVSA
VL: not shown
For orientation: EC50 (read off the curve) means the concentration needed to bring the measured effect to its halfway point. Regarding B5, the half-maximal effective concentration (EC50 (read off the curve)) in experiment [6] is around 0.003 µg/mL. Also, in experiment [7], the “IC50 (read off the curve)” value was around 0.07 µg/mL. For the same molecule, in [8], the “IC50 (read off the curve)” value was around 0.08 µg/mL. Moreover, in [5], the Kd was below 1 pM, the koff was below 1e-07 s⁻¹ and the kon is 198000 M⁻¹ s⁻¹. Moreover, the binding result in experiment [9] is “no binding (tested: 10 µg/ml)”.

B6: humanized antibody AB12M3 (antibody, V domains shown)
VH: EVQLVESGGGLVQPGGSLRLSCAASGFTFSSYGMSWVRQAPGKGLEWVATISGGGRDTYYPDSVKGRFTISRDNAKNNLYLQMNSLRAEDTALYYCARQKDTSWFVHWGQGTLVTVSS
VL: EIVLTQSPATLSLSPGERATLSCRASESVDDYGISFMNWFQQKPGQAPKLLIYVASNQGSGVPARFSGSGSGTDFSLTISSLEPDDTAMYFCQQSKEVPWTFGGGTKVEIK
notes: the description speaks of human IgG4 or IgG1 and human kappa only as embodiments
The term IC50 denotes the concentration that gives 50% inhibition. Take B6: the “EC50 (read off the curve)” value in experiment [10] was around 1000 pM; in experiment [11], around 800 pM; in [6], around 0.003 µg/mL. Further, the “IC50 (read off the curve)” value in experiment [7] is around 0.09 µg/mL; in experiment [8] it was around 0.1 µg/mL. The molecule also returned a Kd in experiment [5] below 1 pM. This molecule displayed a koff in [5] below 1e-07 s⁻¹. Further, the on-rate (kon) in experiment [5] worked out at 226000 M⁻¹ s⁻¹. Moreover, the binding result in experiment [9] is “no binding (tested: 10 µg/ml)”. Moreover, in experiment [12], the IC50 is 114 pM.

B7: humanized antibody AB12M4 (antibody, V domains shown)
VH: EVKLVESGGGLVKPGGSLRLSCAASGFTFSSYGMSWVRQTPEKRLEWVATISGGGRDTYYPDSVKGRFTISRDNAKNNLYLQMSSLRSEDTALYYCARQKDTSWFVHWGQGTLVTVSA
VL: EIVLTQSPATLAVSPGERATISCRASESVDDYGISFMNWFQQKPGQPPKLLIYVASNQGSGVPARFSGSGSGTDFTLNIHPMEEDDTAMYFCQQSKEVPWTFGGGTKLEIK
With B7, in experiment [10], the 50% effective concentration (EC50 (read off the curve)) is around 1000 pM. Moreover, the “EC50 (read off the curve)” value in experiment [6] was around 0.003 µg/mL. Moreover, the “IC50 (read off the curve)” value in experiment [7] was around 0.09 µg/mL. For the same molecule, the “IC50 (read off the curve)” value in experiment [8] was around 0.1 µg/mL. Further, in experiment [5], the Kd was below 1 pM, the koff was below 1e-07 s⁻¹ and the kon was determined as 213000 M⁻¹ s⁻¹. For the same molecule, the binding result in experiment [9] is listed as “no binding (tested: 10 µg/ml)”. For the same molecule, in [12], the 50% inhibitory concentration (IC50) came to 96 pM.
